Measured values as given in the nanobody polyreactivity screen of Harvey et al. (2022).

Experiment: yeast display, Sf9 membrane polyspecificity reagent, FACS + sequencing; frameworks hold sequencing errors
Procedure, shortened: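 After 36–48 hours of galactose induction, yeast (Saccharomyces cerevisiae BJ5465) displaying a synthetic nanobody library were stained at 4 °C for 1 hour with 10% biotinylated, detergent-solubilized Sf9 membrane reagent. Streptavidin microbeads enriched the stained cells before FACS sorting into low and high (top ~1%) gates on anti-HA and streptavidin fluorescence. Each clone's polyreactivity label reflects its gate of origin.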

Sequence | polyreactivity (PSR sort gate)
QVQLVESGGGLVQAGGSLRLSCAASGRTFKFYAMGWYRQAPGKERELVAAISSSGGRTYYADSVKGRFTISRDNAKNTVYLQMNSLTPEDTAVYYCAAVPGSKFVQKDDYWGQGTQVTVSS | low polyreactivity
QVQLVESGGGLVQAGGSLRLSCAASGRTFKGNAMGWYRPAPGKERELVAVITGSGGSTYYADSVKGRFTISRDNAKNTVYLQMHSLKPEDTAVYYCAKQVRSYVRWEYDYWGQGTQGTVSS | low polyreactivity
QVQLVESGGGLVQAGGSLRLSCAASGRTFKGNAMGWYRQAPGKERELVAAISKSGGRTYYADSVKGRFTISRDNAKNTVYLQMNSLKPEDTAVYYCAAGYYPSSSGDDYWGQGTQVTVSS | high polyreactivity
QVQLVESGGGLVQAGGSLRLSCAASGRTFKGNAMGWYRQAPGKERKLVAVITGSGGSTYYADSVKGRFTISRDNAKNTVYLQMNSLKPEDTAVYYCAAESEPIRIRERDYWGQGTHVTVSS | low polyreactivity
QVQLVESGGGLVQAGGSLRLSCAASGRTFKIYAMGWYRQAPGKERELVAAIRRSGGNTYYADSVKGRFTISRDNAKNTVYLQMNSLKPEDTAVYYCATRGYPGGYQRSQSMYYWGQGTQVTVSS | high polyreactivity
QVQLVESGGGLVQAGGSLRLSCAASGRTFKKYAMGWFRQAPGKERELVAAITGSGGSTYYADSVKGRFTISRDNAKNTVYLQMNSLKPEDTADYYCAAYAYGVWHSQDGGNYWGQGTQVTVSS | low polyreactivity
QVQLVESGGGLVQAGGSLRLSCAASGRTFKKYAMGWYRQAPGKERELVAAITSRGGSTYYADSVKGRFTISRDNAKNTVYLQMNSLKPEDTAVYYCNAVRGWLYVFSYPYWDDEYWGQGTQVTVSS | high polyreactivity
QVQLVESGGGLVQAGGSLRLSCAASGRTFKKYAMGWYRQAPGKERELVSAITGSVGSTYYADSVKGRFTISRDNAKNTVYLQMNSLIPEDTAVYYCAAYAYGVWHSQDGGNYWGQGTQVTVSS | low polyreactivity
QVQLVESGGGLVQAGGSLRLSCAASGRTFKLNAMGWYRQAPGKERELVAGITRTGDSTYYADSVKGRFTISRDNAKNTVYLQMNSLKPEDTAVYYCAKDGPWKFIYDYWGQGTQVTVSS | low polyreactivity
QVQLVESGGGLVQAGGSLRLSCAASGRTFKLYAMGWYIQAPGKERELVAAISIRGTSTYYADSVKGRFTISRDNAKNTVYLQMNSLKPEDTAVYYCAAEDRYAYYMVRWQCYYYWGQGTQVTVSS | low polyreactivity
QVQLVESGGGLVQAGGSLRLSCAASGRTFKLYAMGWYRQAPGKERELVAAISRSSGSTYYADSVKGRFTISRDNAKNTDYLQMNSLKPEDTAVYYCAARKNRAYGYWGQGTQVTVSS | high polyreactivity
QVQLVESGGGLVQAGGSLRLSCAASGRTFKPNTMGWYRQAPGKERELVAAITSSGGSTYYADSVKGRFTISRDNAKNTVYLQMNSLKPEDTAVYYCAARGGAPYRIFKDDYWGQGTQVTVSS | high polyreactivity
QVQLVESGGGLVQAGGSLRLSCAASGRTFKPYALGWYRQAPGKERELDAAISTGGSTNYADSEKGRFTISRDNAKNSVYLQMNSLKPEDTAVYYCAADYFLYSYFLGLMDYWGQGTLVTVSS | low polyreactivity
QVQLVESGGGLVQAGGSLRLSCAASGRTFKPYAMGWYRQAPGKERELVAAIRSAGTTNYADSVKGRFTISRDNAKNTVYLQMNSLKPEDTAVYYCNAGTYLRRYYGFDYWGQGTQVTVSS | high polyreactivity
QVQLVESGGGLVQAGGSLRLSCAASGRTFKRNAMGWYRQAPGKEREFVAVITGSGGSTYYADSVKGRFTISRDNAKNTVYLQMNSLKPEDTAVYYCAAQATRYGQYTYDYWGQGTQVTVSS | high polyreactivity
QVQLVESGGGLVQAGGSLRLSCAASGRTFKRYAMGWYRQAPGKERELVAAIRQRGGSTYYADSVMGRFTISRDNAKNTVYLQMNSLKPEDTAVYYCAAVIPRPYSVGFDYWGQGTQVTVSS | high polyreactivity
QVQLVESGGGLVQAGGSLRLSCAASGRTFKSYAMGWYRQAPWKESELVAAISYSGGSTYYADSVKGRVTISRDNAKNTVYLQMNSLKPEDTAVYYCNVVSKVIRGLSGDGYWGVGTQVTVSS | high polyreactivity
QVQLVESGGGLVQAGGSLRLSCAASGRTFKSYSMGWYRPAPGKERELVAAISWSGGSTYYADSVKGRFTISRDNAKNTVYLQMNSLKPEDTAVYYCAKRGYASGSKWDYGYWGQGTQVTVSS | high polyreactivity
QVQLVESGGGLVQAGGSLRLSCAASGRTFKTYAMGWYRQAPGKERELVAAISASGGRTYYADSVKGRFTISRDNAKNTVYLQMNSLKPEDTAVYYCAALGYILNGGDYWGQGTQVTVSS | high polyreactivity
QVQLVESGGGLVQAGGSLRLSCAASGRTFKTYAMGWYRQAPGKERELVAAITRRGGSTYYADSVKGRFTISSDNAKNTVYLQMNRLKPEDTAVYYCAAGFYFLSLFSGRMDYWGQGTQVTVSS | high polyreactivity
QVQLVESGGGLVQAGGSLRLSCAASGRTFKYNAMGWYRQAPGKERELVAAISSTGSTNYADSVKGRFTISRDNAKNTVYLQMNSLKPEDTAVYYCAASYFFVQWGWYYYWGQGTQVTVSS | low polyreactivity
QVQLVESGGGLVQAGGSLRLSCAASGRTFKYNAMGWYRQAPGKERELVATISGSGGRTYYADSVKGRFTISRDNAKNTVYLQMNSLTPEDTAVYYCAAVPSYHSTSPFYYWGLGTQVTVSS | high polyreactivity

Sequence | polyreactivity (PSR sort gate)
QVQLVESGGGLVQAGGSLRLSCAASGRTFKYYAMGWYRQAPGKERELVAAISGSGGSTYYADSVKGRFTISRDNAKNTVYLQMNSLKPEDTAVYYCATGGGKTRSYNYWGQGTQVTVSS | high polyreactivity
QVQLVESGGGLVQAGGSLRLSCAASGRTFKYYAMGWYRQAPGKERELVAAISHSGGSTYYADSVKGRFTISRDNAKNTVYLQMNSLKPEDTAVYYCAADHGDGNYPYYYWGQGTQVTVSS | high polyreactivity
QVQLVESGGGLVQAGGSLRLSCAASGRTFKYYAMGWYRQAPGKERELVAAISYNGGSTFYADSVKGRFTISRDNAKNTVYLQMNSLKPVDTAVYYCAAGPRGTGKYYWGQGTQVTVSS | high polyreactivity
QVQLVESGGGLVQAGGSLRLSCAASGRTFKYYAMGWYRQAPGKERELVAAISYSGGSTYYADSVKGRFTISRDNAKNTVYLQMNSLKPEDTAVYYCAARFTRYYSGGDQKYDYWGQVTQVTVSS | high polyreactivity
QVQLVESGGGLVQAGGSLRLSCAASGRTFKYYAMGWYRQAPGKERELVAAITASDGSTYYADSVKGRFTISRDNAKNTVYLQMNSLKPEDTAVYYCAAVPYRYTYDYWGQGTQVTVSS | high polyreactivity
QVQLVESGGGLVQAGGSLRLSCAASGRTFKYYAMGWYRQAPGKERELVATINYSGGGTNYADSVKGRYTISRDNATNTVSLQMNSLKPDDTAVYYCAARWLWRIPYDYWGEGTQVTVSS | high polyreactivity
QVQLVESGGGLVQAGGSLRLSCAASGRTFLALGWYRPAPGKERELVAAISRTNYADSVKGRVTISRDNAKNTVYLQMHSLKPEETAVYYCAKEYYSYEGYLGLSYVRRYDYWGQGTQVTVSS | low polyreactivity
QVQLVESGGGLVQAGGSLRLSCAASGRTFLFYAMGWYRQAPGKERELVASITLNGGSTYYADSVKGRFTISRDNAKNTVYLQMNSLKPEETAVYYCNKRTRYQIGYGYWGQGTQVTVSS | low polyreactivity
QVQLVESGGGLVQAGGSLRLSCAASGRTFLGYTMGWYRQAPGKERELVAAITSGGSTYYADSVKGRFTISRDNAKNPVYLQMNSLKPEDTAVYYCARGYFEQVQYWYDNEYDFWGQGTQVTGSS | low polyreactivity
QVQLVESGGGLVQAGGSLRLSCAASGRTFLIYAMGWSRPAPGKERELVAAINFSGGNTYNADSVKGRFTISRDNAKHTVYLQMNSLKPEDTAVYYCAAGVYSFRYDYWGQGTQVTVSS | low polyreactivity
QVQLVESGGGLVQAGGSLRLSCAASGRTFLIYAMGWYRQAPGKERELVAAITSGGRTKYADSVKGRFTISRDNAKNTVYLQMNSLKPEDTAVYYCAAESNRLRYYYWGQGTQVTVSS | high polyreactivity
QVQLVESGGGLVQAGGSLRLSCAASGRTFLIYAMGWYRQAPGKERELVAGITRGSTTYADSVKGRFTISRDNAKNTVYLQMNSLKPEDTEVYYCAARNYSVATYGEYDYWGQGTQVTVSS | high polyreactivity
QVQLVESGGGLVQAGGSLRLSCAASGRTFLLNAMGWYRQAPGKERELVAAITGSGGRTNYADSVKGRFTISRDNAKNTVYLQMNSLKPEDTAVYYCNARFPDWALSEISHSTTYGYWGQGTQVTVSS | low polyreactivity
QVQLVESGGGLVQAGGSLRLSCAASGRTFLRNAMGWYRQAPGKERELVAAISWRGGSTYYADSLKGRFTISRDNAKNTVYLQMNSLKPEDTAVYYCNARDGLASDWGQGTQVTVSS | high polyreactivity
QVQLVESGGGLVQAGGSLRLSCAASGRTFLRYAMGWYRQAPRKERELVAAISVSGASTNYADSVKGRFTISRDYAKNTVYLQMNSLKPEDTAVYYCAARVADYDGVPLYRHGDYWGQGTQVTVSS | low polyreactivity
QVQLVESGGGLVQAGGSLRLSCAASGRTFLSYAMGWYRQAPGKERELVAAITSSGGTTNYADSVKGRFTISRDNAKNTVYLQMNSLKPEDTAVYYCAAYSWYFGSRYDYWGQGTQVTVSS | low polyreactivity
QVQLVESGGGLVQAGGSLRLSCAASGRTFLTNAMGWYRQAAGKERELVAAITSSGGNTYYADSVKGRFTISRDNAKNTVYLQMNSLKPEDTAVYYCAAPGYVWYGGRWVYRYYYWGQGTQVTVSS | high polyreactivity
QVQLVESGGGLVQAGGSLRLSCAASGRTFLTNAMGWYRQAPGKERELVAAITSSGGSTYYADSVKGRFTISRDNAKNTVYLLMNSLKPEDTAVYYCNKKSALYRRYDYWGQGTQVTVSS | low polyreactivity
QVQLVESGGGLVQAGGSLRLSCAASGRTFLVNAMGWYRQAPGKERELVAAISQRGGSTDYADSVKGRFTISRDNAKNTVYLQMNSLKPEDTAVYYCAVRWGYLYDYWGQGTQVTVSS | low polyreactivity
QVQLVESGGGLVQAGGSLRLSCAASGRTFLVNAMGWYRQAPGKERELVAVMTRGGSTNYADSVKGRFTISRDNAKNTVYLQMNSLKPEDTAVYYCAKQFSPYRSYGPVVRYDYWGQGTQVTVSS | low polyreactivity
QVQLVESGGGLVQAGGSLRLSCAASGRTFLVNAMGWYRQAPGKEREYVAAINFSVGTTTYADSVKGRFTISRDNAKNTVYLQMNSLKPEDTAVYYCNTYGRYWYIREDYWGQGTQVTVSS | high polyreactivity
